Results on two proteins are retold here after paper PMC9361823, “The α- and β-Subunit Boundary at the Stem of the Mushroom-Like α3β3-Type Oxygenase Component of Rieske Non-Heme Iron Oxygenases Is the Rieske-Type Ferredoxin-Binding Site” (Applied and Environmental Microbiology, 2022).

The series deals with the molecule itself. In words: SEC; α (His6) and untagged β co-expressed in E. coli and co-purified by metal chelation and gel filtration (Superdex200; 20 mM Tris-HCl, 0.2 M NaCl, 10% glycerol, pH 7.4); 150- to 200-kDa complex in solution (Fig. S1; the text does not say how the size was estimated).

B1: β-subunit of CumDO-O (CumA2) (natural protein, Pseudomonas fluorescens IP01, UniProt Q51744 1-186, looked up)
chain: MTSADLTKPIEWPEMPVSLELQNAVEQFYYREAQLLDYQNYEAWLALLTQDIQYWMPIRTTHTSRNKAMEYVPPGGNAHFDETYESMRARIRARVSGLNWTEDPPSRSRHIVSNVIVRETESAGTLEVSSAFLCYRNRLERMTDIYVGERRDILLRVSDGLGFKIAKRTILLDQSTITANNLSQFF
notes: CumA2, β-subunit of CumDO-O (cumene dioxygenase oxygenase component), not tagged; also called 21-kDa β-subunit
In the case of B1, the binding result is listed as “binds”.

B2: α-subunit of CumDO-O (CumA1) (natural protein)
chain: not shown
notes: CumA1, α-subunit of CumDO-O (cumene dioxygenase oxygenase component); also called 51-kDa α-subunit; not shown: His6, C-terminal, kept
On to B2, for which the binding result is “binds”.
